The substances below were run against arrestin-3 fused to Renilla luciferase (UniProt P32121) (assay: BRET arrestin-3 interaction assay). Settings: maximal zaprinast-stimulated BRET; receptor-eYFP co-transfected with arrestin-3-Renilla luciferase; n = 3, ± SD; parent: est. 100; read off a plot.
Sequence of UniProt P32121 (P32121 whole entry, the tested form may be a part): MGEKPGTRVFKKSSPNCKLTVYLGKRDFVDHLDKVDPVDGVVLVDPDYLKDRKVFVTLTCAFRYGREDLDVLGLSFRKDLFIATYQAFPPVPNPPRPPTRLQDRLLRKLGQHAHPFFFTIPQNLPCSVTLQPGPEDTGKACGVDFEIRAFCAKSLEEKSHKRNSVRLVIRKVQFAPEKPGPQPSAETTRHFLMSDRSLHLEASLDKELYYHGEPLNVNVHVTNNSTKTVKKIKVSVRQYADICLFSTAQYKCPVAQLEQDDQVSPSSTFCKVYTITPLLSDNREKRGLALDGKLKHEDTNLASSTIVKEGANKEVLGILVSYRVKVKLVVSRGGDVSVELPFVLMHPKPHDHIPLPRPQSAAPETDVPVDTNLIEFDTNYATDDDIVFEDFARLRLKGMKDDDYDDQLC

Row | Substance | percent of parent (% WT response)
1 | rGPR35-eYFP S286A | 125
2 | rGPR35-eYFP S286A; T290A; S291A; S292A; T293A; S297A; T300A; S302A; S304A; T306A | 7
3 | rGPR35-eYFP S297A; T300A | 10
4 | rGPR35-eYFP S302A; S304A; T306A | 33
5 | rGPR35-eYFP T290A; S291A; S292A; T293A | 83
